The values that follow come from patent US20100203630A1.

The test concerns the target envelope of the SF162 strain of pseudovirus (HIV, SF162) (UniProt P19550). As to the kind of experiment: cell-based or functional assay.

In turn, purified b12-IgG1 (antibody) returned a neutralizing 50% inhibitory concentration (IC50), pseudovirus neutralization assay of 0.026 µg/mL.
